Assay results published in patent publication US20210140973A1.

How the values were obtained:
[1] = target: human IgG4 purified from human serum (human); test: SPR (Biacore), IgG4 immobilized
[2] = target: human IgG4 purified from human serum (human); test: SPR (Biacore), IgG4 immobilized on chip by amino coupling, antibody as analyte
[3] = target: human IgG4 purified from human serum (human); test: latex agglutination inhibition, IgG4-sensitized latex, antibody in R1; free human IgG4 in sample 500 mg/dL
[4] = target: human IgG4 purified from human serum (human); test: latex agglutination inhibition, IgG4-sensitized latex, antibody in R1; free human IgG4 in sample 1000 mg/dL
[5] = target: human IgG4 purified from human serum (human); test: latex agglutination inhibition, IgG4-sensitized latex, antibody in R1; free human IgG4 in sample 0.0 mg/dL
[6] = target: human IgG4 purified from human serum (human); test: latex agglutination inhibition, IgG4-sensitized latex, antibody in R1; free human IgG4 in sample 125 mg/dL
[7] = target: human IgG4 purified from human serum (human); test: latex agglutination inhibition, IgG4-sensitized latex, antibody in R1; free human IgG4 in sample 31.3 mg/dL
[8] = target: human IgG4 purified from human serum (human); test: latex agglutination inhibition, IgG4-sensitized latex, antibody in R1; free human IgG4 in sample 250 mg/dL

Sequence of human IgG4 purified from human serum (human) (constant, as listed by the source limits assumed): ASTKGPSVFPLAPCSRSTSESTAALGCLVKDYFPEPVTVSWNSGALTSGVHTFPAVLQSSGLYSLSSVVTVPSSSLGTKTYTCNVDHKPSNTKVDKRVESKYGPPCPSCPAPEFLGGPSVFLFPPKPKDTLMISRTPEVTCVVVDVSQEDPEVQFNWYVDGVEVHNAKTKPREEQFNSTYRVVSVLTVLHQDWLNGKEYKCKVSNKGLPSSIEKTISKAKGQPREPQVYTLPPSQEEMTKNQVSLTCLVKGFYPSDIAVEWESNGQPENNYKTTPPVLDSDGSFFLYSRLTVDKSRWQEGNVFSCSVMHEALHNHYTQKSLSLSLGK

commercially available antibody HP6025 (Millipore Corporation)
ratio of binding rate constant ka to those of the MaI4-08 and MaI4-09-produced antibodies [1]: < 0.01 fold
Kd [2]: 408 nM
koff [2]: 0.000681 s⁻¹
kon [2]: 1670 M⁻¹ s⁻¹
Absorbance change amount in 800 nm [3]: 0.0031
Absorbance change amount in 800 nm [4]: 0.003
Absorbance change amount in 800 nm [5]: 0.003
Absorbance change amount in 800 nm [6]: 0.0033
Absorbance change amount in 800 nm [7]: 0.0036
Absorbance change amount in 800 nm [8]: 0.0034
